Experimental findings from paper PMC9884143 (2023) are described below.

Where a chain is given by its changes, count along the chain named.

To fix the notation:
B1: CoV2-YD-33 (antibody, V domains shown)
VH: DVQLVESGGGLVQAGGSLRLSCVASGSTDSNYVMGWHRQTSGKQSEWVASIESGGEKKIVDSVKGRFTISRDNAKNTVYLQMNSLKPEDTAVYYCFYERLAWDTSTYWGQGTQVTVS
B2: CoV2-YD-34 (antibody, V domains shown)
VH: B1 VH with H37Y, S45R, E52N, K57T, K58R, I59S, V60A, V63E, R71G, A91G
B3: CoV2-YD-8 (antibody, V domains shown)
VH: QVQLVESGGGLVQPGGSLSLSCAASGSMNSMNPMGWYRQAPGKEREVVARISSGGSTTYTDSVKGRFTISRDSAKNTVYLQMNSLKPDDTAVYYCYIIDDYGVQYWGKGTQVTVS
B4: CoV2-YD-2 (antibody, V domains shown)
VH: QVQLVESGGGLVQPGGSLRLSCSISGFSFGYSAIGWFRQAPGLEREWVSTISSNGDDTVYADSVKGRFTISRDNAKNTVYLQMDSLKPEDTAVYYCARSFRWSRLPRDYDSWGQGTQVTVS
B5: CoV2-YD-9 (antibody, V domains shown)
VH: QVQLVESGGGLVQAGGSVRLSCAASGITFSNYASQWFRQTPGKAREFVAAISGGGTTSYAASVKGRFTLSRDNAKNTVYLQMNDLKFEDTAVYYCHTADLYSDYWGQGTQVTVS
B6: CoV2-YD-7 (antibody, V domains shown)
VH: QVQLVESGGGLVQPGGSLRLSCTASVHPFSIYDMGWYRQAPGKQRVLVASISSDGTTDYADSVKGRFTISRDNAKNTVYLQMDSLKPEDTAVYYCNLAYVTWGQGTQVTVS
B7: CoV2-YD-6 (antibody, V domains shown)
VH: QVQLVESGGGSVQVGGSLRLSCAASGMTFSSATMAWYRQAPGKQREWVAGIGSGGRTSYASSMKGRFTISRDNAKNTVYLQMNSLKPEDTAVYYCYTALLSGGDYWGQGTQVTVS
B8: CoV2-YD-3 (antibody, V domains shown)
VH: QVQLVESGGGLVQAGGSLRLSCVASTTWFSNFGMGWYRQAPGKQRELVAGITYDGTTKYVDSVKGRSTIARDNAKNTVSLQMNSVKPGDTAIYYCNTYPSQLWNWGQGTQVTVS

The test concerns the target SARS-CoV-2 Spike S1 (Wuhan; S1 or RBD) (Severe acute respiratory syndrome …, UniProt P0DTC2). In words: SPR.
Molecule B1 gave an equilibrium dissociation constant (Kd) of 3.54 nM. B2 yielded a Kd of 0.541 nM. Against the preceding molecule, the Kd is about 6.5-fold lower. The same measure for B3: 0.126 nM; for B4: 3.68 nM; for B5: 0.0164 nM. B6 gave a Kd of 3.24 nM. Molecule B7 gave a Kd of 2.91 nM. On to B8, for which the affinity, expressed as Kd, was 0.0409 nM.
